Measurements from article doi:10.1101/2025.03.13.643145 (bioRxiv, 2025).
Positions of bridges follow the written chain, without caps; N, C: chain ends. No end group written: not given here.

Assays:
Test in all cases: ELISA
[1] = target: T1, CD81 EC2 domain (extracellular-2 domain of tetraspanin CD81, residues 113-201) (UniProt P60033 113-201)
T1 sequence: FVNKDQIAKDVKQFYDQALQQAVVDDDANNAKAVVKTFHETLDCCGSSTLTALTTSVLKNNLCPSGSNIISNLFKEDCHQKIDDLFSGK

[2] = target: T2, CD151 EC2 domain (extracellular-2 domain of tetraspanin CD151, residues 113-221) (UniProt P48509 113-221)
T2 sequence: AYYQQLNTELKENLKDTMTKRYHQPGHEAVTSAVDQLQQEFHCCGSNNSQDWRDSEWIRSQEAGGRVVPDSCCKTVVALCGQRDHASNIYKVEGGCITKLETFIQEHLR

[3] = target: T3, CD9 EC2 domain (extracellular-2 domain of tetraspanin CD9, residues 113-192) (UniProt P21926 113-192)
T3 sequence: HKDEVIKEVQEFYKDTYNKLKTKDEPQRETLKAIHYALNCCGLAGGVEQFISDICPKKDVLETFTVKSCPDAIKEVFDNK

Measured: binding result

CRLAGIVQPNDGQSHVGSDNHYSASTTMC (disulfide 1-29; also: GST fusion protein) [disulfide-linked cyclic site 2 peptide of integrin β3 (GST fusion protein)]
binds: all assays above
